4 molecules from patent EP3470428A1 (Numab Innovation AG, dated 2019) can be followed below.

As usually defined, the IC50 is the midpoint of a concentration-inhibition curve. A lower IC50 goes with greater potency.

Test [1] concerns the target human PD-L1 expressed on cells (human, UniProt Q9NZQ7 19-290). Briefly: cell-based or functional assay.
The target in the next test is T1, human serum albumin (human, UniProt P02768 25-609).
T1 construct: Amine-coupled to a CM5 chip; assay at pH 5.5; also called HSA; human SA
In words: SPR (Biacore T200); SA amine-coupled; pH 5.5. For orientation: SPR reads the build-up and loss of mass on a sensor chip optically.

The target in test [2] is human CD137 expressed on cells (human, UniProt Q07011 24-255). In words: cell-based or functional assay.
Test [3] concerns the target T2, biotinylated human PD-L1 (human, UniProt Q9NZQ7 19-238, limits assumed, biotinylated).
T2 construct: also called biotinylated PD-L1
Briefly: competition ELISA; coated human B7.1 as competitor; biotinylated PD-L1 pre-incubated with inhibitor. Background: ELISA stands for enzyme-linked immunosorbent assay.

The target of test [4] is T2, biotinylated human PD-L1. In words: competition ELISA; coated human PD-1 as competitor; biotinylated human PD-L1 pre-incubated with inhibitor.

B1: PRO963 (= PRO1051): 38_02_A04 sc01 scDb-i/33-03-G02 sc01 scDb-o/19-01-H04-sc03 scFv (other)
chain: DIQMTQSPSSLSASVGDRVTITCQASQSINDYLAWYQQKPGKAPKLLIYKASTLASGVPSRFSGSGSGTDFTLTISSLQPEDFATYYCQQGYIITDIDNVFGTGTKVTVLGGGGGSQVQLQESGPGLVKPSETLSLTCKVSGFSFSNSYWICWIRQPPGKGLEWIGCTFVGSSDSTYYANWAKGRVTISVDSSKNQFSLKLSSVTAADTAVYYCARHPSDAVYGYANNLWGQGTLVTVSSGGGGSGGGGSGGGGSGGGGSIQMTQSPSSLSASVGDRVTITCQASQSINNVLAWYQQKPGKAPKLLIYRASTLASGVPSRFSGSGSGTDFTLTISSLQPEDFATYYCQSSYGNYGDFGTGTKVTVLGGGGGSQVQLQESGPGLVKPSETLSLTCKVSGFSFSSGYDMCWIRQPPGKGLEWIGCVVAGSVDITYYASWAKGRVTISVDSSKNQFSLKLSSVTAADTAVYYCARKDAYSDAFNLWGQGTLVTVSSGGGGSGGGGSIQMTQSPSSLSASVGDRVTITCQSSESVYSNNQLSWYQQKPGQPPKLLIYDASDLASGVPSRFSGSGSGTDFTLTISSLQPEDFATYYCAGGFSSSSDTAFGGGTKLTVLGGGGGSGGGGSGGGGSGGGGSEVQLVESGGGLVQPGGSLRLSCAASGFSLSSNAMGWVRQAPGKGLEYIGIISVGGFTYYASWAKGRFTISRDNSKNTVYLQMNSLRAEDTATYFCARDRHGGDSSGAFYLWGQGTLVTVSS
notes: Trispecific scTriabody (scDb-scFv): PD-L1 x CD137 x serum albumin
For the molecule B1, the “IC50 (ng/ml), neutralization of PD-L1/PD-1 interaction, NFAT-luciferase reporter gene assay, with HSA” value in test [1] was determined as 275 ng/mL. In the test with human serum albumin, the binding result is “binds”. For the same molecule, the “max. activation (%), NF-kB reporter gene, CHO-PD-L1; HSA: yes, 24h” value in test [2] is 369%.

B2: PRO1013 (anti-PD-L1 scFv, CDR set of clone 37-20-B03 grafted on a VH1 framework) (scFv)
chain: DIQMTQSPSSLSASVGDRVTITCQASQSIGTYLAWYQQKPGKAPKLLIYRAFILASGVPSRFSGSGSGTDFTLTISSLQPEDFATYYCQSNFYSDSTTIGPNAFGTGTKVTVLGGGGGSGGGGSGGGGSGGGGSQVQLVQSGAEVKKPGASVKVSCKASGFSFNSDYWIYWVRQAPGQGLEWMGSIYGGSSGNTQYASWAQGRVTMTRDTSISTAYMELSSLRSEDTAVYYCARGYVDYGGATDLWGQGTLVTVSS
Turning to B2, the “IC50 (ng/ml), neutralization of PD-L1/PD-1 interaction, NFAT-luciferase reporter gene assay” value in test [1] was determined as 21.3 ng/mL. Also, the IC50 is 0.00405 µg/mL in the test with biotinylated human PD-L1 [3] and 0.57 ng/mL with biotinylated human PD-L1 [4].

B3: PRO1059: 33-03-G02 IgG1 LC with 38_02_A04 sc01 scFV, PD-L1/CD137(scFv) silent Morrison (bispecific antibody)
light: DIQMTQSPSSLSASVGDRVTITCQASQSINDYLAWYQQKPGKAPKLLIYKASTLASGVPSRFSGSGSGTDFTLTISSLQPEDFATYYCQQGYIITDIDNVFGTGTKVTVLGTVAAPSVFIFPPSDEQLKSGTASVVCLLNNFYPREAKVQWKVDNALQSGNSQESVTEQDSKDSTYSLSSTLTLSKADYEKHKVYACEVTHQGLSSPVTKSFNRGECGGGGSGGGGSIQMTQSPSSLSASVGDRVTITCQASQSINNVLAWYQQKPGKAPKLLIYRASTLASGVPSRFSGSGSGTDFTLTISSLQPEDFATYYCQSSYGNYGDFGTGTKVTVLGGGGGSGGGGSGGGGSGGGGSQVQLQESGPGLVKPSETLSLTCKVSGFSFSNSYWICWIRQPPGKGLEWIGCTFVGSSDSTYYANWAKGRVTISVDSSKNQFSLKLSSVTAADTAVYYCARHPSDAVYGYANNLWGQGTLVTVSS
heavy: QVQLQESGPGLVKPSETLSLTCKVSGFSFSSGYDMCWIRQPPGKGLEWIGCVVAGSVDITYYASWAKGRVTISVDSSKNQFSLKLSSVTAADTAVYYCARKDAYSDAFNLWGQGTLVTVSSASTKGPSVFPLAPSSKSTSGGTAALGCLVKDYFPEPVTVSWNSGALTSGVHTFPAVLQSSGLYSLSSVVTVPSSSLGTQTYICNVNHKPSNTKVDKRVEPKSCDKTHTCPPCPAPEAAGGPSVFLFPPKPKDTLMISRTPEVTCVVVDVSHEDPEVKFNWYVDGVEVHNAKTKPREEQYNSTYRVVSVLTVLHQDWLNGKEYKCKVSNKALGAPIEKTISKAKGQPREPQVYTLPPSREEMTKNQVSLTCLVKGFYPSDIAVEWESNGQPENNYKTTPPVLDSDGSFFLYSKLTVDKSRWQQGNVFSCSVMHEALHNHYTQKSLSLSPGK
notes: IgG-scFv fusion, scFv on the light chain; also called Morrison-L
As to B3, in test [1], the “IC50 (ng/ml), neutralization of PD-L1/PD-1 interaction, NFAT-luciferase reporter gene assay” value was found to be 93.8 ng/mL. Besides, the IC50 turned out to be 0.029 µg/mL in the test with biotinylated human PD-L1 [3] and 4.54 ng/mL with biotinylated human PD-L1 [4].

B4: PRO830 (anti-PD-L1 scFv, CDR set of clone 33-03-G02 grafted on a VH4 framework) (scFv)
chain: DIQMTQSPSSLSASVGDRVTITCQASQSINDYLAWYQQKPGKAPKLLIYKASTLASGVPSRFSGSGSGTDFTLTISSLQPEDFATYYCQQGYIITDIDNVFGTGTKVTVLGGGGGSGGGGSGGGGSGGGGSQVQLQESGPGLVKPSETLSLTCKVSGFSFSSGYDMCWIRQPPGKGLEWIGCVVAGSVDITYYASWAKGRVTISVDSSKNQFSLKLSSVTAADTAVYYCARKDAYSDAFNLWGQGTLVTVSS
As for B4, the “IC50 (ng/ml), neutralization of PD-L1/PD-1 interaction, NFAT-luciferase reporter gene assay” value in test [1] was 42.9 ng/mL. Further, the IC50 worked out at 0.0129 µg/mL with biotinylated human PD-L1 [3] and 3.4 ng/mL in the test with biotinylated human PD-L1 [4].
